Reference: US20170342144A1 (Sanofi, published 2017)

T1: human TGFβ2 (human, UniProt P61812 303-414)
T1 construct: also called TGFβ2 homodimer
T1 sequence: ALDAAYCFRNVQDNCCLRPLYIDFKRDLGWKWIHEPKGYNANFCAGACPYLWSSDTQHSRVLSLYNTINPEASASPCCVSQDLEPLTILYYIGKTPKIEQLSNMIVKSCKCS

T2: human TGFβ3 (human, UniProt P10600 301-412)
T2 sequence: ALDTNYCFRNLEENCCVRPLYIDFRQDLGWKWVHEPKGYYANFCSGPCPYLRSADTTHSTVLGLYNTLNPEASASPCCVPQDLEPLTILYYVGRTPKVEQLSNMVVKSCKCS


Key:
human TGFβ2 [1] = target: T1, human TGFβ2; test: Biacore off-rate vs wt GC1008
Excerpt: (§1) Plasmids encoding either the GC1008 heavy chain or light chain were used as a template in PCR-based mutagenesis reactions. Mutations to the encoding DNA were made to create 155 single amino acid substitutions of the encoded heavy chain amino acid sequence and one single amino acid substitution of the encoded light chain amino acid sequence. A QuikChange® Lightning Site-Directed Mutagenesis kit (Agilent Technologies, Santa Clara Calif.) was used according to the manufacturer's instructions to create DNA mutations using a set of forward and reverse primers, either designed for a specific amino acid or for all 20 amino acids with a degenerate codon (NNK). After sequencing confirmation, identified mutant DNA was paired with a wild-type light or heavy chain DNA for transfection into an Expi293F™ host cell suspension (Life Techonologies Corp., Grand Island, N.Y.). At 4 days post-transfection, conditioned media (1 mL) was harvested and purified using a 1 mL Protein A PhyTip® column (PhyNexus, Inc., San Jose, Calif.) and a PureSpeed™ 12-channel pipette (Rainin Instrument LLC, Oakland, Calif.). Purified variant antibody samples were analyzed in duplicate on a Biacore® 3000 (GE Healthcare) at 50 nM concentrations, using the 100 RU level TGFβ1, 2, and 3 immobilized surfaces. The off-rate (kd) of the variants was divided by the kd of the wild-type control to obtain the fold change in the kd. […] A heat map was generated to visualize the results. Variants that completely lost affinity for TGFβ were shown in red without numbers.

human TGFβ3 [2] = target: T2, human TGFβ3; test: Biacore off-rate vs wt GC1008
Excerpt: as §1

human TGFβ1 [3] = target: T3, human TGFβ1 (human, UniProt P01137 279-390); test: Biacore off-rate vs wt GC1008
T3 construct: also called TGFβ1 homodimer
T3 sequence (P01137 279-390 limits assumed): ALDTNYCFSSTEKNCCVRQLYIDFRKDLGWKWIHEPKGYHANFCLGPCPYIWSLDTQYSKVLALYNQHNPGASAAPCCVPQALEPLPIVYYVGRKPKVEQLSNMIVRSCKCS
Excerpt: as §1

human TGFβ2 [4] = target: T1, human TGFβ2; test: Biacore off-rate vs wt GC1008, 50 nM
Outline: (§2)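 Surface plasmon resonance on a Biacore 3000 measured how fast purified antibody variants dissociated from TGFβ isoforms immobilized at about 100 RU. Variants carried single heavy- or light-chain substitutions and were produced by transient Expi293F transfection with Protein A cleanup. Samples at 50 nM were tested in duplicate, and each variant kd was divided by the wild-type control kd to give fold change.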

human TGFβ3 [5] = target: T2, human TGFβ3; test: Biacore off-rate vs wt GC1008, 50 nM
Outline: as §2

human TGFβ1 [6] = target: T3, human TGFβ1; test: Biacore off-rate vs wt GC1008, 50 nM
Outline: as §2

human TGFβ2 [7] = target: T1, human TGFβ2; test: Biacore, 3.33-90 nM, 1:1 global fit, vs wt GC1008
Description: (§3) In FIG. 6C, seventeen mutants were selected and scaled up to produce sufficient amount of purified protein for KD (equilibrium constant=kd/ka) analysis by Biacore. Multiple concentrations (90, 30, 10 and 3.33 nM) were used in duplicate on the 150 RU level TGFβ1, 2, and 3 immobilized surfaces. KD was calculated using global curve fitting analysis for a 1-to-1 Langmuir binding model. The experimental data from all four concentrations were used for calculation except for I54N and I54R mutants, where only the top 2 concentrations were used. The fold changes in KD were compared to the fold changes in kd (off rate) presented in FIG. 6B, and a heat map was generated for visualization. Similar fold changes were observed from the two data sets, confirming the validity of using kd as a parameter for screening of 155 single mutants as shown in FIG. 6B.

human TGFβ3 [8] = target: T2, human TGFβ3; test: Biacore, 3.33-90 nM, 1:1 global fit, vs wt GC1008
Description: as §3

human TGFβ1 [9] = target: T3, human TGFβ1; test: Biacore, 3.33-90 nM, 1:1 global fit, vs wt GC1008
Description: as §3

Binder	kd mutant/kd wt (human TGFβ2 [1])	kd mutant/kd wt (human TGFβ3 [2])	kd mutant/kd wt (human TGFβ1 [3])	kd var/kd wt (human TGFβ2 [4])	kd var/kd wt (human TGFβ3 [5])	kd var/kd wt (human TGFβ1 [6])	KD mutant/KD wt (human TGFβ2 [7])	KD mutant/KD wt (human TGFβ3 [8])	KD mutant/KD wt (human TGFβ1 [9])
D56R (antibody, V domains shown, GC1008 IgG4 variant) VH: QVQLVQSGAEVKKPGSSVKVSCKASGYTFSSNVISWVRQAPGQGLEWMGGVIPIVRIANYAQRFKGRVTITADESTSTTYMELSSLRSEDTAVYYCASTLGLVLDAMDYWGQGTLVTVSS VL: ETVLTQSPGTLSLSPGERATLSCRASQSLGSSYLAWYQQKPGQAPRLLIYGASSRAPGIPDRFSGSGSGTDFTLTISRLEPEDFAVYYCQQYADSPITFGQGTRLEIK	0.8	0.7	1	0.8	0.7	1	0.6	0.6	1
I52L (antibody, V domains shown, GC1008 IgG4 variant) VH: QVQLVQSGAEVKKPGSSVKVSCKASGYTFSSNVISWVRQAPGQGLEWMGGVLPIVDIANYAQRFKGRVTITADESTSTTYMELSSLRSEDTAVYYCASTLGLVLDAMDYWGQGTLVTVSS VL: ETVLTQSPGTLSLSPGERATLSCRASQSLGSSYLAWYQQKPGQAPRLLIYGASSRAPGIPDRFSGSGSGTDFTLTISRLEPEDFAVYYCQQYADSPITFGQGTRLEIK	1.4	1.6	3	1.4	1.6	3	2.4	2.6	4.1
N32E (antibody, V domains shown, GC1008 IgG4 variant) VH: QVQLVQSGAEVKKPGSSVKVSCKASGYTFSSEVISWVRQAPGQGLEWMGGVIPIVDIANYAQRFKGRVTITADESTSTTYMELSSLRSEDTAVYYCASTLGLVLDAMDYWGQGTLVTVSS VL: ETVLTQSPGTLSLSPGERATLSCRASQSLGSSYLAWYQQKPGQAPRLLIYGASSRAPGIPDRFSGSGSGTDFTLTISRLEPEDFAVYYCQQYADSPITFGQGTRLEIK	0.8	0.7	0.6	0.8	0.7	0.6	0.8	1	1
N32K (antibody, V domains shown, GC1008 IgG4 variant) VH: QVQLVQSGAEVKKPGSSVKVSCKASGYTFSSKVISWVRQAPGQGLEWMGGVIPIVDIANYAQRFKGRVTITADESTSTTYMELSSLRSEDTAVYYCASTLGLVLDAMDYWGQGTLVTVSS VL: ETVLTQSPGTLSLSPGERATLSCRASQSLGSSYLAWYQQKPGQAPRLLIYGASSRAPGIPDRFSGSGSGTDFTLTISRLEPEDFAVYYCQQYADSPITFGQGTRLEIK	1.4	1.8	2.7	1.4	1.8	2.7	2.6	3.7	4
E74L (antibody, V domains shown, GC1008 IgG4 variant) VH: QVQLVQSGAEVKKPGSSVKVSCKASGYTFSSNVISWVRQAPGQGLEWMGGVIPIVDIANYAQRFKGRVTITADLSTSTTYMELSSLRSEDTAVYYCASTLGLVLDAMDYWGQGTLVTVSS VL: ETVLTQSPGTLSLSPGERATLSCRASQSLGSSYLAWYQQKPGQAPRLLIYGASSRAPGIPDRFSGSGSGTDFTLTISRLEPEDFAVYYCQQYADSPITFGQGTRLEIK	0.6	0.1	0.8	0.6	0.1	0.8	0.7	0.3	0.9
